Assays:
[1] = tested on: LIN28A (LIN28-TAT recombinant protein, Peprotech); assay: filter binding
[2] = tested on: LIN28A (LIN28-TAT recombinant protein, Peprotech); assay: EMSA

Q: With biotin-labeled pre-let-7a as the substance, how does the Kd [1] read?
A: The Kd was 10 nM.

Q: What about the Kd [2] of the same substance?
A: The Kd was 25 nM.
